Results on eleven substances are retold here after patent US20170343560A1.

Assay [1] addresses bispecific effector function silent anti-ANG2/VEGF antibody. Briefly: bridging ELISA (Ex. 2), ANG2 bridges Bi-drug and Dig-drug; ANG2 25 ng/mL in cynomolgus pool plasma; cut off 0.05. (ELISA stands for enzyme-linked immunosorbent assay.)
The target is the same in assay [2]. Briefly: bridging ELISA (Ex. 2), ANG2 bridges Bi-drug and Dig-drug; ANG2 50 ng/mL in cynomolgus pool plasma; cut off 0.05.
For assay [3] the target is unchanged. Put plainly: bridging ELISA (Ex. 2), ANG2 bridges Bi-drug and Dig-drug; ANG2 100 ng/mL in cynomolgus pool plasma; cut off 0.05.
For assay [4] the target is unchanged. Put plainly: bridging ELISA (Ex. 2), ANG2 bridges Bi-drug and Dig-drug; ANG2 1.56 ng/mL in cynomolgus pool plasma; cut off 0.05.
The target is the same in assay [5]. Briefly: bridging ELISA (Ex. 2), ANG2 bridges Bi-drug and Dig-drug; ANG2 12.5 ng/mL in cynomolgus pool plasma; cut off 0.05.
Assay [6] has the same target. Put plainly: bridging ELISA (Ex. 2), ANG2 bridges Bi-drug and Dig-drug; ANG2 3.13 ng/mL in cynomolgus pool plasma; cut off 0.05.
Assay [7] shares this target. Briefly: bridging ELISA (Ex. 2), ANG2 bridges Bi-drug and Dig-drug; ANG2 6.25 ng/mL in cynomolgus pool plasma; cut off 0.05.
Assay [8] has the same target. Put plainly: bridging ELISA (Ex. 2), ANG2 bridges Bi-drug and Dig-drug; ANG2 0.195 ng/mL in cynomolgus pool plasma; cut off 0.05.
The target is the same in assay [9]. Put plainly: bridging ELISA (Ex. 2), ANG2 bridges Bi-drug and Dig-drug; ANG2 0.391 ng/mL in cynomolgus pool plasma; cut off 0.05.
For assay [10] the target is unchanged. Briefly: bridging ELISA (Ex. 2), ANG2 bridges Bi-drug and Dig-drug; ANG2 0.781 ng/mL in cynomolgus pool plasma; cut off 0.05.
Assay [11] has the same target. Briefly: bridging ELISA (Ex. 2), ANG2 bridges Bi-drug and Dig-drug; ANG2 0.0489 ng/mL in cynomolgus pool plasma; cut off 0.05.
The target is the same in assay [12]. Put plainly: bridging ELISA (Ex. 2), ANG2 bridges Bi-drug and Dig-drug; ANG2 0.0977 ng/mL in cynomolgus pool plasma; cut off 0.05.
Assay [13] shares this target. Put plainly: bridging ELISA (Ex. 2), VEGF bridges Bi-drug and Dig-drug; VEGF 25 ng/mL in cynomolgus pool plasma.
For assay [14] the target is unchanged. Put plainly: bridging ELISA (Ex. 2), VEGF bridges Bi-drug and Dig-drug; VEGF 50 ng/mL in cynomolgus pool plasma.
Assay [15] has the same target. Briefly: bridging ELISA (Ex. 2), VEGF bridges Bi-drug and Dig-drug; VEGF 100 ng/mL in cynomolgus pool plasma.
For assay [16] the target is unchanged. Put plainly: bridging ELISA (Ex. 2), VEGF bridges Bi-drug and Dig-drug; VEGF 1.56 ng/mL in cynomolgus pool plasma.
For assay [17] the target is unchanged. Briefly: bridging ELISA (Ex. 2), VEGF bridges Bi-drug and Dig-drug; VEGF 12.5 ng/mL in cynomolgus pool plasma.
For assay [18] the target is unchanged. Briefly: bridging ELISA (Ex. 2), VEGF bridges Bi-drug and Dig-drug; VEGF 3.13 ng/mL in cynomolgus pool plasma.
The target is the same in assay [19]. Put plainly: bridging ELISA (Ex. 2), VEGF bridges Bi-drug and Dig-drug; VEGF 6.25 ng/mL in cynomolgus pool plasma.
The target is the same in assay [20]. Briefly: bridging ELISA (Ex. 2), VEGF bridges Bi-drug and Dig-drug; VEGF 0.391 ng/mL in cynomolgus pool plasma.
For assay [21] the target is unchanged. Briefly: bridging ELISA (Ex. 2), VEGF bridges Bi-drug and Dig-drug; VEGF 0.781 ng/mL in cynomolgus pool plasma.
Assay [22] shares this target. Put plainly: bridging ELISA (Ex. 2), VEGF bridges Bi-drug and Dig-drug; VEGF 0.195 ng/mL in cynomolgus pool plasma; cut off 0.05.
Assay [23] has the same target. Briefly: bridging ELISA (Ex. 2), VEGF bridges Bi-drug and Dig-drug; VEGF 0.0489 ng/mL in cynomolgus pool plasma; cut off 0.05.
The target in assay [24] is human Fcgamma receptor I (human) (UniProt P12314). Briefly: SPR BIAcore T100, Bi-huFcyRI on SA-CAP chip, antibody 10 ug/mL injected 60 s, reference-subtracted response after injection. (In general: In SPR one partner is held on a chip, and binding of the other changes the refractive index at the surface.)
Chain of UniProt P12314 (P12314 16-288 limits assumed): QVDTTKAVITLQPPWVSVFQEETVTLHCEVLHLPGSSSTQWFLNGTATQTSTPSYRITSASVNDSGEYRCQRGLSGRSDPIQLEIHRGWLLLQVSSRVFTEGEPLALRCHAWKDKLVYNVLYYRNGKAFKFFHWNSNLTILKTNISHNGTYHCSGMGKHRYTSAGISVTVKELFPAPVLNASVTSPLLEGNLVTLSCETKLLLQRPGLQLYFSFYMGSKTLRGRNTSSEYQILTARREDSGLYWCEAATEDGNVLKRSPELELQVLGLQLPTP

Chain of ANG2 (O15123 19-496 limits assumed): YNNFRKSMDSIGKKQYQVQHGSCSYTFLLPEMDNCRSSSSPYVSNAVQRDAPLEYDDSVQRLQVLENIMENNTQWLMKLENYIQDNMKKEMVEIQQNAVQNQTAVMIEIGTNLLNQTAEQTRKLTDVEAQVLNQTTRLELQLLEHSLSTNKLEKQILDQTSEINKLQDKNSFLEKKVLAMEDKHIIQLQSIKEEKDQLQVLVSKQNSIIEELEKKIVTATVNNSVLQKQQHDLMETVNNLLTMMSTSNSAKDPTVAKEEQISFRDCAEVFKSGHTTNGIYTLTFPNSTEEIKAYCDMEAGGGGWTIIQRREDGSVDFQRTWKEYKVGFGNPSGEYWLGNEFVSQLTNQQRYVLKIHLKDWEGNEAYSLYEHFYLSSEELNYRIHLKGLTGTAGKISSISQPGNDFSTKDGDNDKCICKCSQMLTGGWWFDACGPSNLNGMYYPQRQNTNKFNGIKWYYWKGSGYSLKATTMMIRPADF
Chain of VEGF (P15692 other isoform, or with tags, fused parts or gaps limits assumed): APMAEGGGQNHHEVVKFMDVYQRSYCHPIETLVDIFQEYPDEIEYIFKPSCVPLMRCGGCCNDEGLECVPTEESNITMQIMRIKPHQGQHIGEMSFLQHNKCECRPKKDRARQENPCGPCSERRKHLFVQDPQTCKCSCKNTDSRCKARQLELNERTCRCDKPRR

Take “ANG2 (from UniProt O15123 19-496) (ligand)”: the OD 405 nm is 0.052 OD 405 nm in assay [1]; 0.076 OD 405 nm in assay [2]; 0.14 OD 405 nm in assay [3]; 0.024 OD 405 nm in assay [4]; 0.038 OD 405 nm in assay [5]; 0.028 OD 405 nm in assay [6]. The OD 405 nm in [7] was 0.031 OD 405 nm; in assay [8], 0.024 OD 405 nm; in assay [9], 0.022 OD 405 nm; in assay [10], 0.024 OD 405 nm; in assay [11] it was 0.022 OD 405 nm; in assay [12] it was 0.022 OD 405 nm.

For “VEGF (from UniProt P15692 27-191) (ligand)”, the OD 405 nm in assay [13] is 1.69 OD 405 nm; in assay [14] it was 2.34 OD 405 nm; in assay [15], 2.83 OD 405 nm; in assay [16], 0.138 OD 405 nm; in assay [17] it was 0.921 OD 405 nm; in assay [18] it was 0.274 OD 405 nm. The OD 405 nm came to 0.51 OD 405 nm in assay [19]; 0.058 OD 405 nm in [20]; 0.083 OD 405 nm in assay [21]; 0.039 OD 405 nm in [22]; 0.025 OD 405 nm in assay [23].

human IgG1 (antibody) yielded a signal (RU) in [24] of 139 RU.

On to “human IgG1 P329G L234A L235A I253A H310A H434A mutations (antibody)”, for which the signal (RU) in assay [24] came to 1.8 RU.

“human IgG1 with L234A L235A mutations (antibody)”: the signal (RU) in assay [24] is 4 RU.

Regarding “human IgG1 with P329G L243A L235A mutations (antibody)”, in assay [24], the signal (RU) came out at 1.5 RU.

human IgG4 (antibody) showed a signal (RU) in assay [24] of 20.2 RU.

Regarding “human IgG4 with S228P L235E mutations (antibody)”, in assay [24], the signal (RU) turned out to be 2.6 RU.

On to “human IgM (from UniProt P01871 1-453) (antibody)”, for which, in [24], the signal (RU) was 5.2 RU.

On to mouse IgG1 (antibody), for which the signal (RU) in [24] was 3 RU.

In the case of mouse IgG2a (antibody), the signal (RU) in assay [24] was determined as 31.1 RU.
